According to US20260242478A1 (published 2026):
Where no end group is shown, it is not given here.

Tests used:
PSMA Fab (006 PSMA Fab) [1] = molecular target: T1, PSMA Fab (006 PSMA Fab); assay: phage ELISA; biotinylated PSMA Fab on neutravidin plate pre-incubated with PSMA antigen as competitor, clonal phage supernatant, anti-M13 HRP
T1 construct: also called Anti-PSMA Fab; anti-PSMA Fab
Description: (§1) Clonal phage were harvested as crude supernatants and screened via standard ELISAs. […] Prior to the addition of clonal phage. wells were incubated with blocking buffer and PSMA antigen or blocking buffer alone. Without washing or aspirating, clonal phage supernatants were then added to the wells and incubated for a short time. Wells were then washed followed by detection of bound phage using a horse radish conjugated anti-M13 antibody.

PSMA Fab (006 PSMA Fab) [2] = molecular target: T1, PSMA Fab (006 PSMA Fab); assay: phage ELISA; biotinylated PSMA Fab on neutravidin plate, clonal phage supernatant, anti-M13 HRP; blocking buffer alone
Description: as §1

PSMA Fab [3] = molecular target: T2, PSMA Fab; assay: phage binding ELISA; biotinylated PSMA Fab on neutravidin plate, clonal phage supernatant, anti-M13 HRP detection; blocking buffer alone;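 note: before phage were added, wells were preincubated with blocking buffer either containing PSMA antigen or without it, and phage were then added with no wash in between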
T2 construct: also called Anti-PSMA Fab; 006 PSMA Fab
Description: as §1

PSMA Fab [4] = molecular target: T2, PSMA Fab; assay: phage binding ELISA; biotinylated PSMA Fab on neutravidin plate, wells pre-incubated with PSMA antigen as competitor, clonal phage supernatant, anti-M13 HRP detection
Description: as §1

PSMA Fab [5] = molecular target: T3, PSMA Fab; assay: clonal phage ELISA; biotinylated PSMA Fab on neutravidin plate, wells pre-incubated with PSMA antigen as competitor; anti-M13 HRP detection;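 note: crude clonal phage supernatants added to antigen-treated wells without a wash, incubated briefly, then bound phage read out via horse radish–conjugated anti-M13 antibody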
T3 construct: also called Anti-PSMA Fab; 006 PSMA Fab
Description: as §1

PSMA Fab [6] = molecular target: T3, PSMA Fab; assay: clonal phage ELISA; biotinylated PSMA Fab on neutravidin plate; anti-M13 HRP detection
Description: as §1

QDIVCRPSWMCHGF [Phage-3246]
Phage binding ELISA signal, Anti-PSMA Fab with PSMA antigen (PSMA Fab (006 PSMA Fab) [1]): 0.0762
Phage binding ELISA signal, Anti-PSMA Fab (PSMA Fab (006 PSMA Fab) [2]): 1.94

B1: Phage-3212 (peptide)
peptide: TVPLCKPLWMCYGF
modifications: cysteine pairing not given here; also: fused to phage pIII, linker and order not given here
notes: Peptide-180 library clone, tested as clonal phage supernatant; not shown: pIII filament protein of the bacteriophage, to which the peptide is fused
Phage binding ELISA signal, Anti-PSMA Fab (PSMA Fab [3]): 1.97
Phage binding ELISA signal, Anti-PSMA Fab in presence of PSMA (PSMA Fab [4]): 0.184

B2: Phage-3209 (peptide)
peptide: DHHICRPAWMCMGL
modifications: cysteine pairing not given here; also: fused to phage pIII, linker and order not given here
notes: as for B1
Phage binding ELISA signal, Anti-PSMA Fab (PSMA Fab [3]): 1.97
Phage binding ELISA signal, Anti-PSMA Fab in presence of PSMA (PSMA Fab [4]): 0.0876

FFKMCIPEWMCSGF [Phage-3263]
Phage binding ELISA signal, Anti-PSMA Fab in presence of PSMA (PSMA Fab [5]): 0.205
Phage binding ELISA signal, Anti-PSMA Fab (PSMA Fab [6]): 1.91

GVIACKPHWMCTGF [Phage-3251]
Phage binding ELISA signal, Anti-PSMA Fab with PSMA antigen (PSMA Fab (006 PSMA Fab) [1]): 0.085
Phage binding ELISA signal, Anti-PSMA Fab (PSMA Fab (006 PSMA Fab) [2]): 1.93

NVPVCIPDWMCVGF [Phage-3250]
Phage binding ELISA signal, Anti-PSMA Fab with PSMA antigen (PSMA Fab (006 PSMA Fab) [1]): 0.0851
Phage binding ELISA signal, Anti-PSMA Fab (PSMA Fab (006 PSMA Fab) [2]): 1.93

LGNLCVPPWMCQGF [Phage-3257]
Phage binding ELISA signal, Anti-PSMA Fab in presence of PSMA (PSMA Fab [5]): 0.241
Phage binding ELISA signal, Anti-PSMA Fab (PSMA Fab [6]): 1.92

MVERCIPVWMCEGF [Phage-3241]
Phage binding ELISA signal, Anti-PSMA Fab with PSMA antigen (PSMA Fab (006 PSMA Fab) [1]): 0.0937
Phage binding ELISA signal, Anti-PSMA Fab (PSMA Fab (006 PSMA Fab) [2]): 1.94

DGFICRPEWMCQWL [Phage-3256]
Phage binding ELISA signal, Anti-PSMA Fab in presence of PSMA (PSMA Fab [5]): 0.0653
Phage binding ELISA signal, Anti-PSMA Fab (PSMA Fab [6]): 1.93

B3: Phage-3211 (peptide)
peptide: PEAMCRPTWMCAGF
modifications: cysteine pairing not given here; also: fused to phage pIII, linker and order not given here
notes: as for B1
Phage binding ELISA signal, Anti-PSMA Fab (PSMA Fab [3]): 1.97
Phage binding ELISA signal, Anti-PSMA Fab in presence of PSMA (PSMA Fab [4]): 0.0674

YGALCVPAWMCSGF [Phage-3254]
Phage binding ELISA signal, Anti-PSMA Fab in presence of PSMA (PSMA Fab [5]): 0.0866
Phage binding ELISA signal, Anti-PSMA Fab (PSMA Fab [6]): 1.93

B4: Phage-3208 (peptide)
peptide: PFAYCVPQWMCEAF
modifications: cysteine pairing not given here; also: fused to phage pIII, linker and order not given here
notes: as for B1
Phage binding ELISA signal, Anti-PSMA Fab (PSMA Fab [3]): 1.98
Phage binding ELISA signal, Anti-PSMA Fab in presence of PSMA (PSMA Fab [4]): 0.0639

VTHSCVPAWMCVGL [Phage-3248]
Phage binding ELISA signal, Anti-PSMA Fab with PSMA antigen (PSMA Fab (006 PSMA Fab) [1]): 0.091
Phage binding ELISA signal, Anti-PSMA Fab (PSMA Fab (006 PSMA Fab) [2]): 1.93

B5: Phage-3204 (peptide)
peptide: LERLCQPSWMCTGF
modifications: cysteine pairing not given here; also: fused to phage pIII, linker and order not given here
notes: as for B1
Phage binding ELISA signal, Anti-PSMA Fab (PSMA Fab [3]): 1.98
Phage binding ELISA signal, Anti-PSMA Fab in presence of PSMA (PSMA Fab [4]): 0.0739

GFRICEPEWMCVGF [Phage-3240]
Phage binding ELISA signal, Anti-PSMA Fab with PSMA antigen (PSMA Fab (006 PSMA Fab) [1]): 0.0629
Phage binding ELISA signal, Anti-PSMA Fab (PSMA Fab (006 PSMA Fab) [2]): 1.94

GLALCKPAWMCQGF [Phage-3247]
Phage binding ELISA signal, Anti-PSMA Fab with PSMA antigen (PSMA Fab (006 PSMA Fab) [1]): 0.0706
Phage binding ELISA signal, Anti-PSMA Fab (PSMA Fab (006 PSMA Fab) [2]): 1.93

IVPWCKPAWMCAVS [Phage-3255]
Phage binding ELISA signal, Anti-PSMA Fab in presence of PSMA (PSMA Fab [5]): 0.12
Phage binding ELISA signal, Anti-PSMA Fab (PSMA Fab [6]): 1.93

PTPVCKPGWMCDLF [Phage-3261]
Phage binding ELISA signal, Anti-PSMA Fab in presence of PSMA (PSMA Fab [5]): 0.0845
Phage binding ELISA signal, Anti-PSMA Fab (PSMA Fab [6]): 1.92

B6: Phage-3206 (peptide)
peptide: TVVKCVPEWMCEWL
modifications: cysteine pairing not given here; also: fused to phage pIII, linker and order not given here
notes: as for B1
Phage binding ELISA signal, Anti-PSMA Fab (PSMA Fab [3]): 1.98
Phage binding ELISA signal, Anti-PSMA Fab in presence of PSMA (PSMA Fab [4]): 0.0606

B7: Phage-3210 (peptide)
peptide: DTPKCIPQWMCVGF
modifications: cysteine pairing not given here; also: fused to phage pIII, linker and order not given here
notes: as for B1
Phage binding ELISA signal, Anti-PSMA Fab (PSMA Fab [3]): 1.97
Phage binding ELISA signal, Anti-PSMA Fab in presence of PSMA (PSMA Fab [4]): 0.0677

B8: Phage-3205 (peptide)
peptide: VVKICQPDWMCWGF
modifications: cysteine pairing not given here; also: fused to phage pIII, linker and order not given here
notes: as for B1
Phage binding ELISA signal, Anti-PSMA Fab (PSMA Fab [3]): 1.98
Phage binding ELISA signal, Anti-PSMA Fab in presence of PSMA (PSMA Fab [4]): 0.0655

VNVRCEPSWMCTGL [Phage-3243]
Phage binding ELISA signal, Anti-PSMA Fab with PSMA antigen (PSMA Fab (006 PSMA Fab) [1]): 0.0801
Phage binding ELISA signal, Anti-PSMA Fab (PSMA Fab (006 PSMA Fab) [2]): 1.94

AEMRCIPQWMCSGL [Phage-3259]
Phage binding ELISA signal, Anti-PSMA Fab in presence of PSMA (PSMA Fab [5]): 0.138
Phage binding ELISA signal, Anti-PSMA Fab (PSMA Fab [6]): 1.92

B9: Phage-3207 (peptide)
peptide: HDPACVPSWMCFGF
modifications: cysteine pairing not given here; also: fused to phage pIII, linker and order not given here
notes: as for B1
Phage binding ELISA signal, Anti-PSMA Fab (PSMA Fab [3]): 1.98
Phage binding ELISA signal, Anti-PSMA Fab in presence of PSMA (PSMA Fab [4]): 0.0668

MMHNCIPYWMCAGF [Phage-3249]
Phage binding ELISA signal, Anti-PSMA Fab with PSMA antigen (PSMA Fab (006 PSMA Fab) [1]): 0.101
Phage binding ELISA signal, Anti-PSMA Fab (PSMA Fab (006 PSMA Fab) [2]): 1.93

QPGYCVPQWMCMGF [Phage-3258]
Phage binding ELISA signal, Anti-PSMA Fab in presence of PSMA (PSMA Fab [5]): 0.0948
Phage binding ELISA signal, Anti-PSMA Fab (PSMA Fab [6]): 1.92

SIPKCMPEWMCIGL [Phage-3253]
Phage binding ELISA signal, Anti-PSMA Fab in presence of PSMA (PSMA Fab [5]): 0.0587
Phage binding ELISA signal, Anti-PSMA Fab (PSMA Fab [6]): 1.93

ENVRCEPMWMCKGF [Phage-3260]
Phage binding ELISA signal, Anti-PSMA Fab in presence of PSMA (PSMA Fab [5]): 0.0648
Phage binding ELISA signal, Anti-PSMA Fab (PSMA Fab [6]): 1.92

NILRCEPMWMCTGF [Phage-3245]
Phage binding ELISA signal, Anti-PSMA Fab with PSMA antigen (PSMA Fab (006 PSMA Fab) [1]): 0.0977
Phage binding ELISA signal, Anti-PSMA Fab (PSMA Fab (006 PSMA Fab) [2]): 1.94

B10: Phage-3203 (peptide)
peptide: VSVRCEPEWMCMGF
modifications: cysteine pairing not given here; also: fused to phage pIII, linker and order not given here
notes: as for B1
Phage binding ELISA signal, Anti-PSMA Fab (PSMA Fab [3]): 1.98
Phage binding ELISA signal, Anti-PSMA Fab in presence of PSMA (PSMA Fab [4]): 0.0741

LSAMCVPPWMCTGF [Phage-3244]
Phage binding ELISA signal, Anti-PSMA Fab with PSMA antigen (PSMA Fab (006 PSMA Fab) [1]): 0.138
Phage binding ELISA signal, Anti-PSMA Fab (PSMA Fab (006 PSMA Fab) [2]): 1.94

MPMHCVPSWMCEGF [Phage-3252]
Phage binding ELISA signal, Anti-PSMA Fab with PSMA antigen (PSMA Fab (006 PSMA Fab) [1]): 0.0901
Phage binding ELISA signal, Anti-PSMA Fab (PSMA Fab (006 PSMA Fab) [2]): 1.93

ETSMCRPSWMCEGF [Phage-3242]
Phage binding ELISA signal, Anti-PSMA Fab with PSMA antigen (PSMA Fab (006 PSMA Fab) [1]): 0.0918
Phage binding ELISA signal, Anti-PSMA Fab (PSMA Fab (006 PSMA Fab) [2]): 1.94

B11: Phage-3239 (peptide)
peptide: DSVLCVPSWMCHGF
modifications: cysteine pairing not given here; also: fused to phage pIII, fusion site not given here
Phage binding ELISA signal, Anti-PSMA Fab with PSMA antigen (PSMA Fab (006 PSMA Fab) [1]): 0.0834
Phage binding ELISA signal, Anti-PSMA Fab (PSMA Fab (006 PSMA Fab) [2]): 1.94

VSIVCVPEWMCSGF [Phage-3262]
Phage binding ELISA signal, Anti-PSMA Fab in presence of PSMA (PSMA Fab [5]): 0.0721
Phage binding ELISA signal, Anti-PSMA Fab (PSMA Fab [6]): 1.92
